Assay results taken from US20120316071A1 (published 2012).
Changes are numbered by the printed parent chain. Numbers in names are those of the source. Values belong to the binder of their own block, whether it stands above or below them.

Key:
[1] = biological target: T1, rHuman HGF R/c-MET/Fc Chimera, CF (human, UniProt P08581 25-932); experiment: ECL Multispot (MSD) assay; antigen spotted on plate, Fab in solution;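 also: fab bound 1 h at 20 °C, detected by TAG-labelled antibody electrochemiluminescence, signal relative to each well's blank, ratio of 4 or more marks a hit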
T1 construct: Bought from R&D Systems; also called HGF R/Fc; hepatocyte growth factor receptor; not shown: Fc of the bought chimera

[2] = biological target: T2, rHuman ErbB2/Fc Chimera, CF (human, UniProt P04626 23-652); experiment: as above
T2 construct: Bought from R&D Systems; also called human epidermal growth factor 2 receptor; not shown: Fc of the bought chimera

[3] = biological target: T3, rHuman IGF-1 sR, (IGF-1 sR), CF (human, UniProt P08069 31-932); experiment: as above
T3 construct: Bought from R&D Systems; also called insulin-like growth factor-1 soluble receptor

[4] = biological target: T4, rHuman P-Cadherin/Fc Chimera, CF (human, UniProt P22223 108-654); experiment: as above
T4 construct: Bought from R&D Systems; not shown: Fc of the bought chimera

[5] = biological target: T5, rHuman Erythropoietin R/Fc Chimera, CF (human, UniProt P19235 25-250); experiment: as above
T5 construct: Bought from R&D Systems; also called EPO R; EPO R/Fc; not shown: Fc of the bought chimera
T5 sequence (looked up): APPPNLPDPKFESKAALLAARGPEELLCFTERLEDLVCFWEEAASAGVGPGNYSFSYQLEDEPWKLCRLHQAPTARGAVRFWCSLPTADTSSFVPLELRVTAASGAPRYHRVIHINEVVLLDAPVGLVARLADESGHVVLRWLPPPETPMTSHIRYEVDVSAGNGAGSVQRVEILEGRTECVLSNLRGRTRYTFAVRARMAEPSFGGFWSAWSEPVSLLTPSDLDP

[6] = biological target: T6, rHuman Notch-1/Fc Chimera, CF (human, UniProt P46531 19-526); experiment: as above
T6 construct: Bought from R&D Systems; not shown: Fc of the bought chimera

[7] = biological target: T7, rHuman CD44/Fc Chimera, CF (human, UniProt P16070 21-220); experiment: as above
T7 construct: Bought from R&D Systems; not shown: Fc of the bought chimera

[8] = biological target: T8, Recombinant Human DLL4 (human, UniProt Q9NR61 27-524); experiment: as above
T8 construct: Bought from R&D Systems; also called delta-like protein 4; rHuman DLL4

[9] = biological target: T9, rHuman EGF R/Fc Chimera, CF (human, UniProt P00533 25-645); experiment: as above
T9 construct: Bought from R&D Systems; also called epidermal growth factor receptor; not shown: Fc of the bought chimera

[10] = biological target: T10, Recombinant Human DLL4 (delta-like protein 4) (human, UniProt Q9NR61 27-524); experiment: ECL (MSD) binding assay, DLL4 immobilised, Fab at 10 nM
T10 construct: also called rHuman DLL4; Delta-like 4

[11] = biological target: T11, rHuman Erythropoietin R/Fc Chimera, CF (R&D Systems Cat#963-ER) (human, UniProt P19235 25-250); experiment: ECL multispot (MSD) binding assay, antigen spotted on plate;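 also: purified Fab incubated 1 h at 20 °C on antigen spots, detected with TAG-labelled antibody, electrochemiluminescence compared with each well's blank, signal-to-blank ratio ≥4 counted as hit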
T11 construct: Bought recombinant protein; also called EPO R; EPO R/Fc
T11 sequence (looked up): T5 sequence (looked up)

[12] = biological target: T12, rHuman Notch-1/Fc Chimera, CF (R&D Systems Cat#3647-TK) (human, UniProt P46531 19-526); experiment: as above
T12 construct: Bought recombinant protein

[13] = biological target: T13, rHuman P-Cadherin/Fc Chimera, CF (R&D Systems Cat#861-PC) (human, UniProt P22223 108-654); experiment: as above
T13 construct: Bought recombinant protein

[14] = biological target: T14, rHuman IGF-1 sR, (IGF-1 sR), CF (R&D Systems Cat#391-GR) (human, UniProt P08069 31-932); experiment: as above
T14 construct: Bought recombinant soluble receptor; also called insulin-like growth factor-1 soluble receptor

[15] = biological target: T15, rHuman EGF R/Fc Chimera, CF (R&D Systems Cat#344-ER) (human, UniProt P00533 25-645); experiment: as above
T15 construct: Bought recombinant protein; also called epidermal growth factor receptor

[16] = biological target: T16, rHuman CD44/Fc Chimera, CF (R&D Systems Cat#3660-CD) (human, UniProt P16070 21-220); experiment: as above
T16 construct: Bought recombinant protein

[17] = biological target: T17, rHuman ErbB2/Fc Chimera, CF (R&D Systems Cat#1129-ER) (human, UniProt P04626 23-652); experiment: as above
T17 construct: Bought recombinant protein; also called human epidermal growth factor 2 receptor

[18] = biological target: T18, rHuman HGF R/c-MET/Fc Chimera, CF (R&D Systems Cat#358-MT/CF) (human, UniProt P08581 25-932); experiment: as above
T18 construct: Bought recombinant protein; also called HGF R/Fc; hepatocyte growth factor receptor

[19] = biological target: T19, Recombinant Human DLL4 (R&D Systems Cat#1506-D4/CF) (human, UniProt Q9NR61 27-524); experiment: as above
T19 construct: Bought recombinant protein; also called delta-like protein 4; rHuman DLL4

T18 sequence (P08581 25-932, change not shown): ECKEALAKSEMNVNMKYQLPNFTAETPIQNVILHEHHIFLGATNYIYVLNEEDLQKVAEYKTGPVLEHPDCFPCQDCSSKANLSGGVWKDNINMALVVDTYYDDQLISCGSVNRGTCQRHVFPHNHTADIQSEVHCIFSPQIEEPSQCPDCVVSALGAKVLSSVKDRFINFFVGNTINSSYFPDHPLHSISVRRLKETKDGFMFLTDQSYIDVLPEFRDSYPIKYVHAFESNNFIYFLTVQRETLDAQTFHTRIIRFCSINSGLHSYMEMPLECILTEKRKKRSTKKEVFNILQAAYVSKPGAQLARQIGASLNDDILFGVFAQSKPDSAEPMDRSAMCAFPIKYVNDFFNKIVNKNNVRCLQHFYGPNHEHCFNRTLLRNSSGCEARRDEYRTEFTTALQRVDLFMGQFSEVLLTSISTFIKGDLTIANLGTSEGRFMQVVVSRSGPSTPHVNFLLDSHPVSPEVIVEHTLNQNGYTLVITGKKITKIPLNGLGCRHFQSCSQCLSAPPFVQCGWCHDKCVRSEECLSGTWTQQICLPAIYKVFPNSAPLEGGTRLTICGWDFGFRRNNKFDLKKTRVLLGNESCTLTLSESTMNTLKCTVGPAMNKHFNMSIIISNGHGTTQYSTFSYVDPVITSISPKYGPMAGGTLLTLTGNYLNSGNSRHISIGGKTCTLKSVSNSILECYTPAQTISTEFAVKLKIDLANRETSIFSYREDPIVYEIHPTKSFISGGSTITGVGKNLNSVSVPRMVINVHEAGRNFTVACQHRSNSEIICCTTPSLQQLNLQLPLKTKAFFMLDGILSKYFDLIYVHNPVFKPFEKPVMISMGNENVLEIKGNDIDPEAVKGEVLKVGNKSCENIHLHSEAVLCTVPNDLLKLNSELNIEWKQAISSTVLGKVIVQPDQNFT
T1 sequence (P08581 25-932, change not shown): as above

ECL signal [11]: 573
ECL signal [12]: 474
ECL signal [13]: 510
ECL signal [14]: 445
ECL signal [15]: 380
ECL signal [16]: 488
ECL signal [17]: 352
ECL signal [18]: 293
ECL signal [19]: 167000
B3: Fab VH1-46_IGHD6-6*01_IGHJ1*01 S102A/S103P/S104F/H111F (APFF) & L6_IGKJ1*01 S31M (Fab, V domains shown)
VH: QVQLVQSGAEVKKPGASVKVSCKASGYTFTSYYMHWVRQAPGQGLEWMGIINPSGGSTSYAQKFQGRVTMTRDTSTSTVYMELSSLRSEDTAVYYCAREEYAPFSAEYFQFWGQGTLVTVSS
VL: EIVLTQSPATLSLSPGERATLSCRASQSVSMYLAWYQQKPGQAPRLLIYDASNRATGIPARFSGSGSGTDFTLTISSLEPEDFAVYYCQQRSNWPPWTFGQGTKVEIKR
notes: Tested as Fab (CH1 with His6/Flag tags, kappa CL) made in E. coli; also called APFF / S31M

ECL signal [11]: 599
ECL signal [12]: 349
ECL signal [13]: 369
ECL signal [14]: 267
ECL signal [15]: 342
ECL signal [16]: 256
ECL signal [17]: 295
ECL signal [18]: 280
ECL signal [19]: 189000
B4: Fab VH1-46_IGHD6-6*01_IGHJ1*01 S102A/S103P/S104F/H111F (APFF) & L6_IGKJ1*01 S31F (Fab, V domains shown)
VH: B3 VH
VL: B3 VL with M31F
notes: Tested as Fab (CH1 with His6/Flag tags, kappa CL) made in E. coli; also called APFF / S31F

ECL signal [11]: 504
ECL signal [12]: 421
ECL signal [13]: 480
ECL signal [14]: 350
ECL signal [15]: 373
ECL signal [16]: 426
ECL signal [17]: 307
ECL signal [18]: 352
ECL signal [19]: 221000
B5: Fab VH1-46_IGHD6-6*01_IGHJ1*01 S102A/S103P/S104F/H111F (APFF) & L6_IGKJ1*01 S31H (Fab, V domains shown)
VH: B3 VH
VL: B3 VL with M31H
notes: Tested as Fab (CH1 with His6/Flag tags, kappa CL) made in E. coli; also called APFF / S31H

ECL signal [11]: 594
ECL signal [12]: 461
ECL signal [13]: 493
ECL signal [14]: 404
ECL signal [15]: 488
ECL signal [16]: 466
ECL signal [17]: 372
ECL signal [18]: 431
ECL signal [19]: 53300
B6: Fab VH1-46_IGHD6-6*01_IGHJ1*01 S102A/S103P/S104F/H111F (APFF) & L6_IGKJ1*01 S31P (Fab, V domains shown)
VH: B3 VH
VL: B3 VL with M31P
notes: Tested as Fab (CH1 with His6/Flag tags, kappa CL) made in E. coli; also called APFF / S31P

The remaining lines, values behind:

B1: Fab VH1-46_IGHD6-6*01_IGHJ1*01 S102A/S103P/S104F/H111F (APFF) & L6_IGKJ1*01 S28F (Fab, V domains shown)
VH: B3 VH
VL: B3 VL with S28F, M31S
notes: Fab made in E. coli; the variable domains were cloned into Plasmid A (CH1, His and Flag tags) and Plasmid C (kappa CL); also called APFF / S28F
ECL signal [1]: 223
ECL signal [2]: 242
ECL signal [3]: 275
ECL signal [4]: 336
ECL signal [5]: 413
ECL signal [6]: 367
ECL signal [7]: 402
ECL signal [8]: 134000
ECL signal [9]: 283

B2: Fab VH1-46_IGHD6-6*01_IGHJ1*01 S102A/S103P/S104F/H111F & L6_IGKJ1*01 (Fab, V domains shown)
VH: B3 VH
VL: not shown
notes: also called H:APFF & L:wt; APFF
Signal [10 nM Fab] [10]: 13500

B7: Fab VH1-46_IGHD6-6*01_IGHJ1*01 S102A/S103P/S104F/H111F (APFF) & L6_IGKJ1*01 S28V (Fab, V domains shown)
VH: B3 VH
VL: B3 VL with S28V, M31S
notes: Fab made in E. coli; the variable domains were cloned into Plasmid A (CH1, His and Flag tags) and Plasmid C (kappa CL); also called APFF / S28V
ECL signal [1]: 338
ECL signal [2]: 231
ECL signal [3]: 284
ECL signal [4]: 344
ECL signal [5]: 446
ECL signal [6]: 289
ECL signal [7]: 380
ECL signal [8]: 83100
ECL signal [9]: 327
